Results taken from article PMC7525497, “Antibodies from Sierra Leonean and Nigerian Lassa fever survivors cross-react with recombinant proteins representing Lassa viruses of divergent lineages” (Scientific Reports, 2020).

Molecular target: the molecule itself
Test: SDS-PAGE and western blotting

B1: LASV Zinc protein (Z), lineage IV (natural protein)
chain: MGNKQAKAPESKDSPRASLIPDATHLGPQFCKSCWFENKGLVECNNHYLCLNCLTLLLSVSNRCPICKMPLPTKLRPSAAPTAPPTGAADSIRPPPYSP
notes: also called Z protein; lineage IV Z
B1: binds.
